Data taken from paper PMC8950220, “Impact of Fluorinated Ionic Liquids on Human Phenylalanine Hydroxylase—A Potential Drug Delivery System” (Nanomaterials, 2022).

Assays:
[1] = target: the molecule itself; test: native gel or EMSA; blue native PAGE, NativePAGE 4-16% Bis-Tris gel; hPAH with 0-1.2% v/v [N1112(OH)][C4F9SO3], with and without L-Phe
[2] = target: the molecule itself; test: SAXS; batch mode, 0.9 mg/mL hPAH in 20 mM HEPES pH 7.0, 200 mM NaCl, 0-1.2% v/v [N1112(OH)][C4F9SO3], no L-Phe; volume fractions of oligomers fitted with OLIGOMER
[3] = target: the molecule itself; test: SEC; Superdex 200 Increase 10/300, 20 mM HEPES pH 7.0, 200 mM NaCl, 277.15 K; tetramer fraction isolated

B1: human phenylalanine hydroxylase (enzyme, UniProt P00439 1-452, looked up)
chain: MSTAVLENPGLGRKLSDFGQETSYIEDNCNQNGAISLIFSLKEEVGALAKVLRLFEENDVNLTHIESRPSRLKKDEYEFFTHLDKRSLPALTNIIKILRHDIGATVHELSRDKKKDTVPWFPRTIQELDRFANQILSYGAELDADHPGFKDPVYRARRKQFADIAYNYRHGQPIPRVEYMEEEKKTWGTVFKTLKSLYKTHACYEYNHIFPLLEKYCGFHEDNIPQLEDVSQFLQTCTGFRLRPVAGLLSSRDFLGGLAFRVFHCTQYIRHGSKPMYTPEPDICHELLGHVPLFSDRSFAQFSQEIGLASLGAPDEYIEKLATIYWFTVEFGLCKQGDSIKAYGAGLLSSFGELQYCLSEKPKLLPLELEKTAIQNYTVTEFQPLYYVAESFNDAKEKVRNFAATIPRPFSVRYDPYTQRIEVLDNTQQLKILADSINSEIGILCSALQKIK
notes: human phenylalanine hydroxylase (hPAH), recombinant full-length, each subunit 52 kDa; No step that cleaves the tag is described, and the enzymatic assays name the protein His6-hPAH, so the tag and linker were probably kept; The tetramer fraction from SEC was the starting material of all assays; also called hPAH; His6-hPAH; source: E. coli Top10, purified (Ni-NTA, SEC on Superdex 200 Increase; …)
stoichiometry N [1]: 8
stoichiometry N [2]: 2
stoichiometry N [3]: 4
